Values quoted from earlier work, collected in publication PMC10522771.

Columns and labels:
[1] = target: CBP TAZ2 (Homo sapiens) (UniProt Q92793)
[2] = target: CBP TAZ1 (Homo sapiens) (UniProt Q92793)
CBP TAZ1 (Homo sapiens), sequence (Q92793 340-439): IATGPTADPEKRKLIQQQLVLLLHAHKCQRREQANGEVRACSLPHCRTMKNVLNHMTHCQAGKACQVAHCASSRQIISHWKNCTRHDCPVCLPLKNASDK

MITF N-terminal TAD, sequence (O75030 224-295): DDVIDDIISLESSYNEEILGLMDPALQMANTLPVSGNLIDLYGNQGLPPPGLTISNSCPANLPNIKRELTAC
CBP TAZ2 (Homo sapiens), sequence (Q92793 1764-1855): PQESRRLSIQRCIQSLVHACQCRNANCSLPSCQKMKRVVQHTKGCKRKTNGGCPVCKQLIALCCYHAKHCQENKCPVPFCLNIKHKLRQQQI

In the case of “MITF N-terminal TAD (from UniProt O75030)”, the Kd [1] is given as 1.2 µM and the Kd [2] is given as 6.7 µM.
